Legend:
Test in all cases: SPR, KD relative to WT C2;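 further: biacore SPR at 37 °C, anti-C2 mAbs captured via immobilised goat anti-human IgG, C2 alanine or serine surface mutants as analytes, 1:1 model fitted, double-referenced sensograms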
[1] = target: T1, human C2 V722A (human, UniProt P06681 21-752)
T1 sequence: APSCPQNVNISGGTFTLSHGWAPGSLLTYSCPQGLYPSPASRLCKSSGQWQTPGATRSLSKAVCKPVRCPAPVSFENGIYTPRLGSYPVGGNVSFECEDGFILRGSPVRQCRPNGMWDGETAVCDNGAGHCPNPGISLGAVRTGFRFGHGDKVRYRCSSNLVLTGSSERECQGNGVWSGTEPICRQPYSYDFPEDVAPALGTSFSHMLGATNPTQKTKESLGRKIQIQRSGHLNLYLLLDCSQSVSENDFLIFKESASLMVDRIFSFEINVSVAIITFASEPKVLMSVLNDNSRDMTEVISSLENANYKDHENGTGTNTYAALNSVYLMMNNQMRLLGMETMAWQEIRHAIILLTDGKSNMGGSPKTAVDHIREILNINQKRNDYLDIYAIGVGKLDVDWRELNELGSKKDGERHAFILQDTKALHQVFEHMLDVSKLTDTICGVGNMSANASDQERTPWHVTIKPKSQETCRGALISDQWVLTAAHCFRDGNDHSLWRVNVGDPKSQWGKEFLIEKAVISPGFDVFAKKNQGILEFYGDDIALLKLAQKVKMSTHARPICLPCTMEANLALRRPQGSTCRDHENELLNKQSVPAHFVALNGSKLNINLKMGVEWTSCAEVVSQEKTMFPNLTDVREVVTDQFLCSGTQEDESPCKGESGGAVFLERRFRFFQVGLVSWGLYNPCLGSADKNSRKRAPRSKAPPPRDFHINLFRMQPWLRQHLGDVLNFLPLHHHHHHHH

[2] = target: T2, human C2 A326S (human, UniProt P06681 21-752)
T2 sequence: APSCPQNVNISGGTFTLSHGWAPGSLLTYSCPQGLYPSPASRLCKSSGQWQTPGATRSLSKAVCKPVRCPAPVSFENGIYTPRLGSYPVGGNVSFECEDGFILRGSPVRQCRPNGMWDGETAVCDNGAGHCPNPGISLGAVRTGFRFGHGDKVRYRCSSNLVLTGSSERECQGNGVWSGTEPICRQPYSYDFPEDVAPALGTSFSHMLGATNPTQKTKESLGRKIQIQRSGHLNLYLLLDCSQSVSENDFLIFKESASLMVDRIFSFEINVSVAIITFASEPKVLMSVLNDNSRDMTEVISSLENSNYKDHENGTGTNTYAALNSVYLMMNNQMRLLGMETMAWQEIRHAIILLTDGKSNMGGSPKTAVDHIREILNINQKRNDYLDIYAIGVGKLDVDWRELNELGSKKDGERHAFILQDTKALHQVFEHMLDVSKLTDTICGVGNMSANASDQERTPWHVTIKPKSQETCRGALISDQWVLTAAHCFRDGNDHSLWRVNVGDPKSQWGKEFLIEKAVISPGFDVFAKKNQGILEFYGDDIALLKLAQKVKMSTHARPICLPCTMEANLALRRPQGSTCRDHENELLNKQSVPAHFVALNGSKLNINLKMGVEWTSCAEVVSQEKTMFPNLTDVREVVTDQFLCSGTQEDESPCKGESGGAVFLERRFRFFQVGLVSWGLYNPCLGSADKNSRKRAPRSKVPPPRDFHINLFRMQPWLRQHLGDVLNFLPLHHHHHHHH

[3] = target: T3, human C2 G677A (human, UniProt P06681 21-752)
T3 sequence: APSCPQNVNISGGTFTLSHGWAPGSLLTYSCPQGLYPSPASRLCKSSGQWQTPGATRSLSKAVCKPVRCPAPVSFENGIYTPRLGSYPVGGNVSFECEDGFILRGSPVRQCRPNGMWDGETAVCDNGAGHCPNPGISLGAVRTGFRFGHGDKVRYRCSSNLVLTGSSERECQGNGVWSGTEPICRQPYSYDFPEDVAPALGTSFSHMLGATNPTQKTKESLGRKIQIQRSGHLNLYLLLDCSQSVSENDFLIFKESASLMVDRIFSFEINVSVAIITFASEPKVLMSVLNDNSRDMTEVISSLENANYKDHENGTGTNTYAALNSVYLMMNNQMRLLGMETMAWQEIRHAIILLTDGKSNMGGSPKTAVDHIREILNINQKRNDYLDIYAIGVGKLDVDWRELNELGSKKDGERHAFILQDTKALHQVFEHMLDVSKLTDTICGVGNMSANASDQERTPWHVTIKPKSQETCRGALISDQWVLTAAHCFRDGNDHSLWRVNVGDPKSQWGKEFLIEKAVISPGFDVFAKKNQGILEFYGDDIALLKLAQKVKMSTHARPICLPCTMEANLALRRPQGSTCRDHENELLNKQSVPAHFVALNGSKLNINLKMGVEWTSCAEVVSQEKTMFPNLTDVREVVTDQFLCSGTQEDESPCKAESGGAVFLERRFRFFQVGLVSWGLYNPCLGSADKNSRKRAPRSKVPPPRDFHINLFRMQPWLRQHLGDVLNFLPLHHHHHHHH

[4] = target: T4, human C2 V448A (human, UniProt P06681 21-752)
T4 sequence: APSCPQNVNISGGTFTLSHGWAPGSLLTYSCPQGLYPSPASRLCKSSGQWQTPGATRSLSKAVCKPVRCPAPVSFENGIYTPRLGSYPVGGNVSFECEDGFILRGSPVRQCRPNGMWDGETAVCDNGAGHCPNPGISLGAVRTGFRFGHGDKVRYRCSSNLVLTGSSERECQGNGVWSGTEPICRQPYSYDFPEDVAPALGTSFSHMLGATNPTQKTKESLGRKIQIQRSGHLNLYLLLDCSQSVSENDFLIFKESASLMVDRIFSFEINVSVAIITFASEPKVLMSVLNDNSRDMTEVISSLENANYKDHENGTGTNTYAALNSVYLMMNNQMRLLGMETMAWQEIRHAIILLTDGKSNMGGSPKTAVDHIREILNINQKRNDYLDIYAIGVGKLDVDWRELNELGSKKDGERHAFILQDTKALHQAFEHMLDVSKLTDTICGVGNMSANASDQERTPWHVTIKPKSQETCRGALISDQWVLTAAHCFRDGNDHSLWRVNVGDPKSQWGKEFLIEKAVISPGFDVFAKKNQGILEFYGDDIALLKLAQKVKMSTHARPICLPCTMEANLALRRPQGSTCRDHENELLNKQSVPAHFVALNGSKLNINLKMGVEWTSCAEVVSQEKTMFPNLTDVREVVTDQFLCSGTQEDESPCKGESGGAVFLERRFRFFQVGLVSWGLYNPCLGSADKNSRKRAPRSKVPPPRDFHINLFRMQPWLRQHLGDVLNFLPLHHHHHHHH

B1: RF16-226 (antibody, human IgG4 S228P, lambda)
heavy: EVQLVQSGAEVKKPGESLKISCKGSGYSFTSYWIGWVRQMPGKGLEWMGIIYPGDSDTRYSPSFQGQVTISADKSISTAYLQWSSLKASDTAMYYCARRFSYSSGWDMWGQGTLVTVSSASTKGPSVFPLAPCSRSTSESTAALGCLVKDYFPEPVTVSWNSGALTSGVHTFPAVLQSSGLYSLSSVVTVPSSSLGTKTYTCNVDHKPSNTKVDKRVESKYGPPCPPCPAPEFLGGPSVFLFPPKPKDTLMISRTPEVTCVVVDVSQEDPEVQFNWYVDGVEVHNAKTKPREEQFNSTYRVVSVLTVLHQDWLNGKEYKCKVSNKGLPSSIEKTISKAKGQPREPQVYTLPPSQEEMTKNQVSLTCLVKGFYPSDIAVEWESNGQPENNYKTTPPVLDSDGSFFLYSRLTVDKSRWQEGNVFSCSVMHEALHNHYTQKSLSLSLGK
light: SYELTQPPSVSVSPGQTARITCSGDALTSKYVAWYQQKSGLAPLLVIYEDTRRPSGIPAKFSGSSSGSVATLTISGAHGDDEADYYCYSTDASGHQRVFGGGTKLTVLSQPKAAPSVTLFPPSSEELQANKATLVCLISDFYPGAVTVAWKADGSPVKAGVETTKPSKQSNNKYAASSYLSLTPEQWKSHRSYSCQVTHEGSTVEKTVAPTECS
notes: pH-dependent anti-C2 antibody from a phage display library; also called WT
Fold diff [1]: 10 fold | Fold diff [2]: 1 fold | Fold diff [3]: 1 fold | Fold diff [4]: 0 fold

Reference: US20220332804A1 (CSL INNOVATION, published 2022)
